The labels stand for the following.
B1: glmS ribozyme (parent)
chain: AUAAAAGCGCCAGAACUACAGAAAUGUAGUUGACGAGGAGGAGGUUUAUCGAAUUUUCGGCGGAUGCCUCCAAA

± gives the standard error. Fewer inactive variants are shown than the library holds. Some results are limits rather than exact numbers.

In the first series the parent is B1. As to the kind of experiment: self-cleavage kobs at 10000 uM GlcN6P; higher = faster cleavage; RNA array. To be noted: with glucosamine-6-phosphate. The essentials:
(§1)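 Barcoded ribozyme variants were transcribed in situ on sequenced MiSeq chips by E. coli RNA polymerase. At 37 °C, a hybridised Cy3 probe tracked them while glucosamine-6-phosphate (40 μM to 10 mM) in HEPES/KCl/Mg(OAc)2 buffer flowed in and tiles were imaged over ~14 h. Per-tile medians of signals normalised to baseline and to non-cleaving reference variants were fit to one- or two-exponential decays, giving kobs. kcat and KM came from weighted Michaelis–Menten fits across concentrations.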
Turning to G9U G32U G37U, the “self-cleavage kobs at 10000 uM GlcN6P” value is under 1e-05 s⁻¹.

For C16U G29U G40U C50U, the “self-cleavage kobs at 10000 uM GlcN6P” value was under 1e-05 s⁻¹.

U30G G32A C71U: the “self-cleavage kobs at 10000 uM GlcN6P” value came out at 0.00359 ± 0.0005 s⁻¹.

Regarding G26U A53G U69G, the “self-cleavage kobs at 10000 uM GlcN6P” value was determined as 5.41e-05 ± 1.5e-05 s⁻¹.

For the variant A6U C10G G62U C67G C71G, the “self-cleavage kobs at 10000 uM GlcN6P” value came out at 2.87e-05 ± 1.4e-05 s⁻¹.

On to C16A G32U U55G, for which the “self-cleavage kobs at 10000 uM GlcN6P” value turned out to be 0.000315 ± 4.6e-05 s⁻¹.

A48U A52C G60A A64C: the “self-cleavage kobs at 10000 uM GlcN6P” value was under 1e-05 s⁻¹.

With A6C A12C C58G, the “self-cleavage kobs at 10000 uM GlcN6P” value was under 1e-05 s⁻¹.

For A6G G29U G43C C61U C67U, the “self-cleavage kobs at 10000 uM GlcN6P” value is under 1e-05 s⁻¹.

With A15G U65A G66U, the “self-cleavage kobs at 10000 uM GlcN6P” value worked out at 0.000274 ± 4.1e-05 s⁻¹.

Consider G13U C50G C70U, for which the “self-cleavage kobs at 10000 uM GlcN6P” value is 5.49e-05 ± 1.2e-05 s⁻¹.

Take A12U G37C U45A A48U C68U: the “self-cleavage kobs at 10000 uM GlcN6P” value is under 1e-05 s⁻¹.

Turning to U54G G66U C68U, the “self-cleavage kobs at 10000 uM GlcN6P” value worked out at 0.000154 ± 3.1e-05 s⁻¹.

Turning to C10A G13U G44A, the “self-cleavage kobs at 10000 uM GlcN6P” value was under 1e-05 s⁻¹.

In the case of A23C C68A, the “self-cleavage kobs at 10000 uM GlcN6P” value amounted to 5.82e-05 ± 2.4e-05 s⁻¹.

For U30C U46C G59U, the “self-cleavage kobs at 10000 uM GlcN6P” value is under 1e-05 s⁻¹.

With G9U A14C A36C U46A, the “self-cleavage kobs at 10000 uM GlcN6P” value is under 1e-05 s⁻¹.

As to A15U U30G A48U A53G, the “self-cleavage kobs at 10000 uM GlcN6P” value came out at 0.000112 ± 3.6e-05 s⁻¹.

As for A14C A52U A53C, the “self-cleavage kobs at 10000 uM GlcN6P” value is under 1e-05 s⁻¹.

U30G U45A C67A: the “self-cleavage kobs at 10000 uM GlcN6P” value stood at 0.00242 ± 0.00045 s⁻¹.

Consider G40U G43C U65A, for which the “self-cleavage kobs at 10000 uM GlcN6P” value is under 1e-05 s⁻¹.

Take A14G A15U G32A: the “self-cleavage kobs at 10000 uM GlcN6P” value amounted to 0.00264 ± 0.00069 s⁻¹.

With C11U A53G G60A, the “self-cleavage kobs at 10000 uM GlcN6P” value is under 1e-05 s⁻¹.

With C11U U31C U56C, the “self-cleavage kobs at 10000 uM GlcN6P” value was found to be 9.92e-05 ± 2.1e-05 s⁻¹.

On to A12C A15U A52G, for which the “self-cleavage kobs at 10000 uM GlcN6P” value amounted to 0.000174 ± 3.6e-05 s⁻¹.

Turning to U30C G32A C70G, the “self-cleavage kobs at 10000 uM GlcN6P” value was 7.6e-05 ± 1.7e-05 s⁻¹.

Turning to A14C G38U G63U C68A, the “self-cleavage kobs at 10000 uM GlcN6P” value stood at 4.08e-05 ± 1.9e-05 s⁻¹.

In the case of A6U G7C A14G U57C, the “self-cleavage kobs at 10000 uM GlcN6P” value was under 1e-05 s⁻¹.

Regarding A14G G44C C67U, the “self-cleavage kobs at 10000 uM GlcN6P” value was determined as 0.00278 ± 0.0013 s⁻¹.

For the variant G40U U47C G51A G59U C71U, the “self-cleavage kobs at 10000 uM GlcN6P” value was under 1e-05 s⁻¹.

On to G32A C34U G51C, for which the “self-cleavage kobs at 10000 uM GlcN6P” value is under 1e-05 s⁻¹.

On to G38C G43C G59C, for which the “self-cleavage kobs at 10000 uM GlcN6P” value was under 1e-05 s⁻¹.

With U47A A53G U55A G66C, the “self-cleavage kobs at 10000 uM GlcN6P” value amounted to 0.000375 ± 5.9e-05 s⁻¹.

In the case of G7A G35A A36G, the “self-cleavage kobs at 10000 uM GlcN6P” value was under 1e-05 s⁻¹.

For G7A C11G A14C A48G A64G, the “self-cleavage kobs at 10000 uM GlcN6P” value was under 1e-05 s⁻¹.

In the case of A36C U69A C70U, the “self-cleavage kobs at 10000 uM GlcN6P” value was found to be 6.82e-05 ± 1.5e-05 s⁻¹.

Consider G13C U49A G60U C61A, for which the “self-cleavage kobs at 10000 uM GlcN6P” value is under 1e-05 s⁻¹.

Consider C8A G29C U46A, for which the “self-cleavage kobs at 10000 uM GlcN6P” value is under 1e-05 s⁻¹.

In the case of A33C A53G A64C, the “self-cleavage kobs at 10000 uM GlcN6P” value is under 1e-05 s⁻¹.

For A52U C58G U65G, the “self-cleavage kobs at 10000 uM GlcN6P” value is under 1e-05 s⁻¹.

As for G40A U45A G66A, the “self-cleavage kobs at 10000 uM GlcN6P” value was determined as 0.00649 ± 0.0018 s⁻¹.

For the variant U27G A42U, the “self-cleavage kobs at 10000 uM GlcN6P” value came out at 0.000136 ± 3e-05 s⁻¹.

As to G35C A39U G41C C61A, the “self-cleavage kobs at 10000 uM GlcN6P” value is under 1e-05 s⁻¹.

G29U G41U U45C C70U: the “self-cleavage kobs at 10000 uM GlcN6P” value stood at 0.000108 ± 2.4e-05 s⁻¹.

Take A6G A33C A64G: the “self-cleavage kobs at 10000 uM GlcN6P” value was under 1e-05 s⁻¹.

For C11G U31G G35U A36U U49C A52U, the “self-cleavage kobs at 10000 uM GlcN6P” value was under 1e-05 s⁻¹.

For the variant A53U C70G C71G, the “self-cleavage kobs at 10000 uM GlcN6P” value is 2.8e-05 ± 1.2e-05 s⁻¹.

G7A U55A G66A C67U U69G: the “self-cleavage kobs at 10000 uM GlcN6P” value stood at 0.000476 ± 0.00013 s⁻¹.

As for A33C A36C C50U C68A, the “self-cleavage kobs at 10000 uM GlcN6P” value is under 1e-05 s⁻¹.

Consider G44U A64U C67G, for which the “self-cleavage kobs at 10000 uM GlcN6P” value stood at 6.97e-05 ± 1.6e-05 s⁻¹.

Regarding A12G A36U A48C A53C G66A C70G, the “self-cleavage kobs at 10000 uM GlcN6P” value was under 1e-05 s⁻¹.

On to G44C U45A U46G, for which the “self-cleavage kobs at 10000 uM GlcN6P” value worked out at 3.99e-05 ± 2e-05 s⁻¹.

As for C16U G38U A52C C58A, the “self-cleavage kobs at 10000 uM GlcN6P” value is under 1e-05 s⁻¹.

As for C19A C34G, the “self-cleavage kobs at 10000 uM GlcN6P” value is under 1e-05 s⁻¹.

As to A12C G41A U46G, the “self-cleavage kobs at 10000 uM GlcN6P” value came out at 0.000334 ± 7.8e-05 s⁻¹.

Regarding G35A G43C C67G C68G, the “self-cleavage kobs at 10000 uM GlcN6P” value came to 6.9e-05 ± 2e-05 s⁻¹.

C19A G35C U47C U49G G51U C68U C71U: the “self-cleavage kobs at 10000 uM GlcN6P” value is under 1e-05 s⁻¹.

As for G7A U31C C50U U65G, the “self-cleavage kobs at 10000 uM GlcN6P” value was under 1e-05 s⁻¹.

Take A12C G29C G43C: the “self-cleavage kobs at 10000 uM GlcN6P” value is under 1e-05 s⁻¹.

Regarding U31G C67A C71A, the “self-cleavage kobs at 10000 uM GlcN6P” value came out at 0.000258 ± 6.9e-05 s⁻¹.

Consider A14U A15G G41U, for which the “self-cleavage kobs at 10000 uM GlcN6P” value stood at 0.000237 ± 5.3e-05 s⁻¹.

Consider A36U G40A G63U, for which the “self-cleavage kobs at 10000 uM GlcN6P” value is under 1e-05 s⁻¹.

Regarding G38U A64U C71U, the “self-cleavage kobs at 10000 uM GlcN6P” value is under 1e-05 s⁻¹.

For the variant U30C G32C U47G C50G A53U A64G C68A C70A, the “self-cleavage kobs at 10000 uM GlcN6P” value was 0.000334 ± 8.3e-05 s⁻¹.

For the variant A12U G13U G29C, the “self-cleavage kobs at 10000 uM GlcN6P” value was determined as 3.79e-05 ± 1.5e-05 s⁻¹.

As to A12C C61U G66U, the “self-cleavage kobs at 10000 uM GlcN6P” value is under 1e-05 s⁻¹.

Variants of B1 are the subject of a further series. As to the kind of experiment: self-cleavage kobs at 2500 uM GlcN6P; higher = faster cleavage; RNA array. To be noted: with glucosamine-6-phosphate. The essentials: as §1
In the case of C10G C16U A33G G40C U47G U56G, the “self-cleavage kobs at 2500 uM GlcN6P” value is under 1e-05 s⁻¹.

Consider G41C A42G C70A, for which the “self-cleavage kobs at 2500 uM GlcN6P” value is 6.34e-05 ± 1.5e-05 s⁻¹.

For the variant A6U G29U A36G G44A U55C, the “self-cleavage kobs at 2500 uM GlcN6P” value was under 1e-05 s⁻¹.

Turning to C16A G32U U55G, the “self-cleavage kobs at 2500 uM GlcN6P” value was 0.000117 ± 3.5e-05 s⁻¹.

Take C16A G29U C68U C71U: the “self-cleavage kobs at 2500 uM GlcN6P” value is 6.71e-05 ± 2.1e-05 s⁻¹.

For the variant A14G G51C A64U C67G C71U, the “self-cleavage kobs at 2500 uM GlcN6P” value is under 1e-05 s⁻¹.

On to A12G A42C G59U G63U, for which the “self-cleavage kobs at 2500 uM GlcN6P” value was under 1e-05 s⁻¹.

Regarding G29U U57A, the “self-cleavage kobs at 2500 uM GlcN6P” value was found to be 4.22e-05 ± 1.5e-05 s⁻¹.

In the case of G35U A42U U49A A53U, the “self-cleavage kobs at 2500 uM GlcN6P” value is under 1e-05 s⁻¹.

With G7U C16U U46A, the “self-cleavage kobs at 2500 uM GlcN6P” value is under 1e-05 s⁻¹.

With G44U U46G C70U C71G, the “self-cleavage kobs at 2500 uM GlcN6P” value was under 1e-05 s⁻¹.

Consider U31G U45C, for which the “self-cleavage kobs at 2500 uM GlcN6P” value stood at 0.000406 ± 0.00014 s⁻¹.

Take G29C C50U A53G C71U: the “self-cleavage kobs at 2500 uM GlcN6P” value was under 1e-05 s⁻¹.

Regarding U47A A48C G51U, the “self-cleavage kobs at 2500 uM GlcN6P” value was under 1e-05 s⁻¹.

A36U U55C C58G: the “self-cleavage kobs at 2500 uM GlcN6P” value was under 1e-05 s⁻¹.

For A12C A14U A53C, the “self-cleavage kobs at 2500 uM GlcN6P” value was 8.51e-05 ± 4e-05 s⁻¹.

Consider C8A A36G A53G, for which the “self-cleavage kobs at 2500 uM GlcN6P” value was under 1e-05 s⁻¹.

As for C16U G51C U54C U57G, the “self-cleavage kobs at 2500 uM GlcN6P” value was under 1e-05 s⁻¹.

The values above are taken from the supplement of paper PMC7125110.
